Measurements as given in US6043045A, “Screening methods for the identification of novel antibiotics” (The Scripps Research Institute, priority 1998, dated 2000).

What was measured:
[1] = substrate: Nc1ncnc2c1ncn2[C@@H]1O[C@H](COP(=O)(O)OP(=O)(O)OP(=O)(O)O)[C@@H](O)[C@H]1O; assay: Phosphorylation of His-SpoOF immobilized on Ni-resin by KinA (high throughput assay); type: biochemical, Bacillus subtilis; conditions: 1 μM KinA, 22° C., 20 min
Procedure: Phosphorylation of immobilized His-SpoOF was carried out using the MultiScreen 96-well filtration plate (0.65 μm, type DVPP) from Millipore (Bedford, Mass.). The removal of liquid from the wells of the filtration plate was done with the vacuum manifold from Millipore. The His-SpoOF resin (25%, v/v) was placed into individual wells of the filtration plate and washed twice with 200 μl buffer A. A total volume of 80 μl of buffer A containing the indicated amounts of KinA, ATP, and [γ-^32 P]ATP was added to the wells.
The plate was then incubated for the indicated period of time at 22° C. with gentle shaking. The reaction was terminated by removal of the reaction mixture from the wells followed by three washes of the resin with buffer A.
The resin was then washed three times with buffer A containing 30 mM imidazole with 5 min. incubation/shaking and another three times with buffer A only. […]
For analysis by scintillation counting, 80 μl of 0.2 N HCl was added to each of the wells and the plate was incubated at 55° C. with gentle shaking for 1 hour. […] To each of the wells of the MicroFluor plate, 150 μl of MicroScint-40 (Packard, Meriden, Conn.) was added and the radioactivity was counted using the TopCount from Packard. […]

[2] = substrate: Nc1ncnc2c1ncn2[C@@H]1O[C@H](COP(=O)(O)OP(=O)(O)OP(=O)(O)O)[C@@H](O)[C@H]1O; assay: KinA autophosphorylation assay at higher KinA concentration and ATP competition series; type: biochemical, Bacillus subtilis; conditions: other: KinA
Procedure: The above-noted experiments were performed using a KinA concentration of […]. At this concentration, a band corresponding to KinA~P was not visible on the autoradiographs. Therefore, it could not be determined if the inhibition occurred at the KinA autophosphorylation step or at the phosphotransferase reaction between KinA~P and SpoOF. To address this question, assays were performed using a higher KinA concentration (1×10^-6 M). The prevention of stable autophosphorylation of KinA by oleic acid was confirmed. Data was gathered which verified the incorporation of ^32 P from [γ^32 P]ATP into the KinA protein in the presence of SpoOF and differing concentrations of oleic acid (not shown). The assay was performed as disclosed hereinabove, except that the KinA concentration was increased to 1×10^-6 M and the incubation time was shortened to three minutes.
To determine the nature of the fatty acid inhibition of autophosphorylation, three series of reactions were performed. In the first series, no oleic acid was present; the second contained 2.5×10^-5 M oleic acid; the third contained 7.0×10^-5 M oleic acid. […] Even at the lowest oleic acid concentration (2.5×10^-5 M) and highest ATP level (2×10^-3 M), the KinA was greater than 95% inhibited.

Row | Protein | Km ([1]; other: SDS-PAGE analysis) [µM] | Km ([1]; other: scintillation counting) [µM] | Km [2] [µM]
1 | KinA (histidine protein kinase) (Bacillus subtilis subsp. subtilis str. 168) (protein, made in house; host or cells: E. coli (printed "E. coil")) MEQDTQHVKPLQTKTDIHAVLASNGRIIYISANSKLHLGYLQGEMIGSFLKTFLHEEDQFLVESYFYNEHHLMPCTFRFIKKDHTIVWVEAAVEIVTTRAERTEREIILKMKVLEEETGHQSLNCEKHEIEPASPESTTYITDDYERLVENLPSPLCISVKGKIVYVNSAMLSMLGAKSKDAIIGKSSYEFIEEEYHDIVKNRIIRMQKGMEVGMIEQTWKRLDGTPVHLEVKASPTVYKNQQAELLLLIDISSRKKFQTILQKSRERYQLLIQNSIDTIAVIHNGKWVFMNESGISLFEAATYEDLIGKNIYDQLHPCDHEDVKERIQNIAEQKTESEIVKQSWFTFQNRVIYTEMVCIPTTFFGEAAVQVILRDISERKQTEELMLKSEKLSIAGQLAAGIAHEIRNPLTAIKGFLQLMKPTMEGNEHYFDIVFSELSRIELILSELLMLAKPQQNAVKEYLNLKKLIGEVSALLETQANLNGIFIRTSYEKDSIYINGDQNQLKQVFINLIKNAVESMPDGGTVDIIITEDEHSVHVTVKDEGEGIPEKVLNRIGEPFLTTKEKGTGLGLMVTFNIIENHQGVIHVDSHPEKGTAFKISFPKK | 72 | 70 | –
2 | KinA (Bacillus subtilis subsp. subtilis str. 168) (protein, made in house) MEQDTQHVKPLQTKTDIHAVLASNGRIIYISANSKLHLGYLQGEMIGSFLKTFLHEEDQFLVESYFYNEHHLMPCTFRFIKKDHTIVWVEAAVEIVTTRAERTEREIILKMKVLEEETGHQSLNCEKHEIEPASPESTTYITDDYERLVENLPSPLCISVKGKIVYVNSAMLSMLGAKSKDAIIGKSSYEFIEEEYHDIVKNRIIRMQKGMEVGMIEQTWKRLDGTPVHLEVKASPTVYKNQQAELLLLIDISSRKKFQTILQKSRERYQLLIQNSIDTIAVIHNGKWVFMNESGISLFEAATYEDLIGKNIYDQLHPCDHEDVKERIQNIAEQKTESEIVKQSWFTFQNRVIYTEMVCIPTTFFGEAAVQVILRDISERKQTEELMLKSEKLSIAGQLAAGIAHEIRNPLTAIKGFLQLMKPTMEGNEHYFDIVFSELSRIELILSELLMLAKPQQNAVKEYLNLKKLIGEVSALLETQANLNGIFIRTSYEKDSIYINGDQNQLKQVFINLIKNAVESMPDGGTVDIIITEDEHSVHVTVKDEGEGIPEKVLNRIGEPFLTTKEKGTGLGLMVTFNIIENHQGVIHVDSHPEKGTAFKISFPKK | – | – | 130
